Results: the supplement of paper PMC9170038

Test system: MS2 coat protein
Assay: apparent KD of MS2 coat protein; designed switch direction (-1 OFF switch, 1 ON switch): -1; higher = weaker reporter binding
Summary of the method: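 Each step of the titration lasted 0.8–1.5 h at the lowest concentration and 10–20 min at the highest. The protein, SNAP-549-labelled MS2 coat protein, went from 0.7 or 1.5 nM doubling to 3 µM over RNA switches transcribed on Illumina chips by stalled E. coli RNA polymerase. Normalised cluster fluorescence was curve-fitted, and the per-design median over clusters is given as apparent KD.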

[1] = Eterna round: R95, input ligand: FMN 200 uM
[2] = Eterna round: R95, input ligand: microRNA oligo, concentration not stated
[3] = Eterna round: R95, input ligand: none
[4] = input ligand: microRNA oligo, concentration not stated

| Sequence | apparent KD of MS2 coat protein [1] [µM] | apparent KD of MS2 coat protein [2] [µM] | apparent KD of MS2 coat protein [3] [µM] | apparent KD of MS2 coat protein (input ligand: FMN 200 uM) [µM] | apparent KD of MS2 coat protein [4] [µM] | apparent KD of MS2 coat protein (input ligand: none) [µM] |
| --- | --- | --- | --- | --- | --- | --- |
| AAUACAAUAAUUAAAGAGAUAGUACAUUAUACAAGUGAAACAUGAGGAUCACCCAUGUCCUCAUUUGCUCGUCUAAU [Hunting Buffalo with a BB Gun] (puzzle: Sensor v3, turn-off variant 2) | 0.334 | 0.142 | 0.435 |  |  |  |
| AAUAUACAUGUAGGAUAUCUGCACGUGUAGUGCAGAGAAGGACAUGAGGAUCACCCAUGUAAUUAAGAUCAAUUAUUAAAUAUU [ENG1/3-B3] (Eterna round: R96, puzzle: Exclusion NG 1) |  |  |  | 0.447 | 0.0322 | 0.0623 |
| AAUAUCGUAGGAUAUUAGUGCUCAGACAUGAGGAUCACCCAUGUUUGGUGGGUUGGAGAAUGAGAAGGGCGAUGAA [EX5 #17] (Eterna round: R97, puzzle: Exclusion 5) |  |  |  | 0.376 |  | 0.687 |
| AAUAUGUUAGGAUAUCUCAGCUGCCCGUAAACAGGCUAGCGAGAGAAGGGACAUGAGGAUCACCCAUGUCAUCC [Eternabot (Original) Solution 2] (Eterna round: R97, puzzle: Exclusion 4) |  |  |  | 0.0171 |  | 0.0156 |
| AAUCAACAUGAGGAUCACCCAUGUGAGGAUAUAGGCAUGCAUGCAUGCAUGCAUGCAACUAGAAGGCACAAUAC [Design #18] (Eterna round: R97, puzzle: Exclusion 1) |  |  |  | 0.0582 |  | 0.0374 |
| AAUCCACAUGAGGAUCACCCAUGUGAGGAUAUGAUACUAUGUACUUCGGUACAUAGUAUCAGAAGGCAUAUGAA [Ex1-3: 49] (puzzle: Exclusion 1) |  | 0.0269 |  |  |  |  |
| AAUCCUAGAGGAUAUACAUGUGAACUACUGUACAUCCCUGUACAUGAGGAUCACCCAUGUAGAAGGCUGACGGA [Eternabot (L2) Solution 97] (Eterna round: R97, puzzle: Exclusion 2) |  |  |  | 0.244 |  | 0.197 |
| AAUGCAAGCAAGAUCCUAAACAUGAGGAUCACCCAUGUGCUCGUCUUAUAAAGUACUAUCACGAAAGUGAUAGUACA [Sensor 3, v1 - 64] (puzzle: Sensor v3, turn-off variant 1) | 0.515 | 0.132 | 0.744 |  |  |  |
| AAUGGGUGUGUGAGGAUAUACGAAGGCAAUUGCCAGUAGAAGGUACAUGAGGAUCACCCAUGUGUCCAAAAGAG [Tititemaon] (puzzle: Brourd's mod of Exclusion 4) | 0.0128 | 0.00911 | 0.0132 |  |  |  |
| AAUUAACAUCAGGAUAUGACUAGCUUCGGCUAGUCAGAAGGGAUGACAUGAGGAUCACCCAUGUGAUCAAUUAA [E6/2-A1] (Eterna round: R97, puzzle: Exclusion 6) |  |  |  | 0.127 |  | 0.134 |
| AAUUAAGCAAGCAGAUCCCACAUGAGGAUCACCCAUGUGCUCGUCUUAUAAGGUACUGUGACGAAAGUCACGGUACC [Mat - Sensor, turn-off var - Eli Mod - D72] (Eterna round: R97, puzzle: Sensor, turn-off variant 1) |  |  |  | 0.129 |  | 0.12 |
| AAUUAGCAAGCAAGAUCCCACAUGAGGAUCACCCAUGUGCUCGUCUUAUAAGGUACUGUGACGAUAGUCACGGUACC [Mat - Sensor, turn-off var - Eli Mod - D49] (Eterna round: R97, puzzle: Sensor, turn-off variant 1) |  |  |  | 0.0429 |  | 0.0494 |
| AAUUAGCAAGCGAGAUCCCACAUGAGGAUCACCCAUGUGCUCGUCUUAUAAAAGACUGUGACGAUAGUCACGGUCAC [Mat - Sensor, turn-off var - Eli Mod - D25] (Eterna round: R97, puzzle: Sensor, turn-off variant 1) |  |  |  | 0.0153 |  | 0.0123 |
| AAUUAGUCAGGAUAUACAUGAGGAUCACCCAUGUAAACUUUUAGUUUAAUUUGAAUGUGUAGAAGGGACAUUAA [Ex3 #48] (Eterna round: R97, puzzle: Exclusion 3) |  |  |  | 0.0254 |  | 0.0297 |
| AAUUCUAGGGUCAGACGCACAAGCUUUUUGCUCGUUUUAACAUGAGGAUCACCCAUGUCUAGUGGAUCUGAUCGGGC [JL ViennaUCT Isreen mod 8] (Eterna round: R96, puzzle: Sensor v3, turn-off variant 2) |  |  |  | 0.0253 | 0.0581 | 0.0333 |
| AAUUCUAGGGUCAGACGCACAAGCUUUUUGCUCGUUUUAACAUGAGGAUCACCCAUGUCUAGUGGAUCUGAUCGGGC [JL ViennaUCT Isreen mod 8] (puzzle: Sensor v3, turn-off variant 2) | 0.0248 | 0.0729 | 0.0224 |  |  |  |
| AAUUUAAUUAACAAGCUUUACAUGAGGAUCACCCAUGUGAUCAUGCUCGUCUUAUAAUUAAUUAAUUAAUUAAUUAA [Stov1/6-A1] (Eterna round: R97, puzzle: Sensor, turn-off variant 1) |  |  |  | 0.0484 |  | 0.0592 |
| AAUUUACAUGAGGAUCACCCAUGUGAGGAUAUAUGUUUAAAUUUUUUUUUUUUUUUUCAUAGAAGGCGCGUGAU [JR_Exc1_Sub048] (Eterna round: R97, puzzle: Exclusion 1) |  |  |  | 0.0173 |  | 0.0316 |
| AAUUUACAUGAGGAUCACCCAUGUGAGGAUAUAUGUUUUAAUUUUUUUUUUUUUUUUCAUAGAAGGCGCGUGAU [JR_Exc1_Sub047] (Eterna round: R97, puzzle: Exclusion 1) |  |  |  | 0.0494 |  | 0.0435 |
| AAUUUACAUGAGGAUCACCCAUGUGAGGAUAUGAUACUAUGUACUUCGGUACAUAGUAUCAGAAGGCAUGUGGG [Ex1-3: 93] (puzzle: Exclusion 1) |  | 0.0191 |  |  |  |  |
| AAUUUGCAAGCGAGAUCCCACAUGAGGAUCACCCAUGUGCUCGUCUUAUAAGGUACUGUGACGAUAGUCACGGUACC [Mat - Sensor, turn-off var - Eli Mod - D93] (Eterna round: R97, puzzle: Sensor, turn-off variant 1) |  |  |  | 0.0141 |  | 0.0143 |
| ACAAAACAUGAGGAUCACCCAUGUGAGGAUAUGCGAAACAAACAAACAAACAAACAAAGCAGAAGGCACAACAA [Ex 1 Tesla 3] (Eterna round: R96, puzzle: Exclusion 1) |  |  |  |  | 0.0156 |  |
| ACAAACAACAUAGGAUAUCUGCGGGUGUCAGUGCUCAUGGAUCUCCACAUGAGGAUCACCCAUGUAGAGAAGGAUGAACGCUUA [Retionzaan] (Eterna round: R96, puzzle: Exclusion NG 2) |  |  |  | 0.0824 | 0.0089 | 0.0141 |
